Key:
[1] = biological target: HIS tagged human CD22 recombinant protein (human) (UniProt P20273); assay: ELISA, His-tagged CD22 coated at 2 µg/mL, anti-hFc HRP detection
[2] = biological target: HIS tagged human CD19 recombinant protein (human) (UniProt P15391); assay: ELISA, His-tagged CD19 coated at 2 µg/mL, anti-hFc HRP detection
[3] = biological target: HIS tagged human CD22 recombinant protein (human) (UniProt P20273); assay: SPR Biacore T200, Fc fusion captured on Protein A chip, His-tagged CD22 as analyte
[4] = biological target: HIS tagged human CD19 recombinant protein (human) (UniProt P15391); assay: SPR Biacore T200, Fc fusion captured on Protein A chip, His-tagged CD19 as analyte
[5] = biological target: T1, endogenous CD22 on Raji / Nalm6 cells (also on CD19 knock-out Raji cells) (human, UniProt P20273 20-847); assay: FACS, scFv at 200 nM on Raji and Nalm6 cells, Alexa Fluor 647 anti-His detection, % positive cells
T1 construct: whole, on cells

[6] = biological target: T2, full-length human CD19 on transfected K562 cells (human, UniProt P15391 20-556); assay: FACS, scFv at 200 nM on CD19 K562 cells, Alexa Fluor 647 anti-His detection, % positive cells
T2 construct: whole, on cells; K562 clone transfected with pCMV6-Entry; also called CD19 K562; CD19/K562; not shown: flag or Myc tag at the C-terminus
T2 sequence (looked up): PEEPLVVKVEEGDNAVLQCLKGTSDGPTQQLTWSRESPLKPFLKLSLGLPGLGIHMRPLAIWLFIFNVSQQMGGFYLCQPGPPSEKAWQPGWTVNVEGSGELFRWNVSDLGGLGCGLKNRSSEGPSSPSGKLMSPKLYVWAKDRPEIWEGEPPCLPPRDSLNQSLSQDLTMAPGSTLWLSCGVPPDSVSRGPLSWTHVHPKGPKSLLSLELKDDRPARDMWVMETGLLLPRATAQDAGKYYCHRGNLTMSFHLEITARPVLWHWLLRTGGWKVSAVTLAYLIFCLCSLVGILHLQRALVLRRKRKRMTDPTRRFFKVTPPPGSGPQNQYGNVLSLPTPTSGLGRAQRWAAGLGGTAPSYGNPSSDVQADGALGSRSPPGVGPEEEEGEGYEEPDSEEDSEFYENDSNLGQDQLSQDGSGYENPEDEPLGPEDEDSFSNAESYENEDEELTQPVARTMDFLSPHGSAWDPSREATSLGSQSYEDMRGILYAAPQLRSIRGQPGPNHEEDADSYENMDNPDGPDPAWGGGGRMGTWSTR
Description: Cells were spun down at 1300 rpm for 5 minutes at 4° C. to remove unbound antibodies. Cells were then washed once with 200 iaL of PBS per well. […] Samples were then spun down at 1300 rpm for 5 minutes at 4° C. and washed twice with 200uL of 1×PBS per well. The resultant samples were reconstituted in 200 uL of 1×PBS and read on Attune™ NxT Flow Cytometer.

[7] = biological target: T3, HIS tagged human CD19 recombinant protein (human, UniProt P15391 20-291, limits assumed); assay: ELISA, plate coated with His-tagged human CD19 at 2 ug/mL, anti-hFc HRP detection
T3 construct: also called rhCD19; human CD19-HIS tagged protein; not shown: His tag
T3 sequence (looked up): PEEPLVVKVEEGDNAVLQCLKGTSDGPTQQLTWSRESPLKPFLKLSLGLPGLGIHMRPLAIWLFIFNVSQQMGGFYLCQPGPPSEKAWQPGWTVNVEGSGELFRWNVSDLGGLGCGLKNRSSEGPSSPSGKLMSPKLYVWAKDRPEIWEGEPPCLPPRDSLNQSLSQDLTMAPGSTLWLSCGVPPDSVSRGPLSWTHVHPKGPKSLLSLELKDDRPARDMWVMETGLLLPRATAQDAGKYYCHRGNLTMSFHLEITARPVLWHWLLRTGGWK
Description: (§1) Briefly, 384 well plate was immobilized with HIS tagged human CD19 or CD22 recombinant protein at final concentration of 2 μg/mL in 1×PBS in total volume of 25μL per well. The plate was incubated overnight at 4° C. followed by blocking with 80μL of superblock per well for 1 hour. […] CD19 or CD22 binding was detected by adding 25 μL of anti-hFc HRP diluted at 1:5000 in 1×PBST. In between each step, the plate was washed 3 times with 1×PBST in a plate washer. The plate was then developed with 20 μL of TMB substrate for 5 mins and stopped by adding 20 μL of 2 N sulfuric acid. The plate was read at OD450 nm (BIOTEK plate reader) and data plotted using GraphPad Prism® 8.1 software. […]

[8] = biological target: T4, HIS tagged human CD22 recombinant protein (human, UniProt P20273 20-687, limits assumed); assay: ELISA, His-tagged CD22 coated at 2 µg/mL, anti-hFc HRP detection
T4 construct: also called rhCD22; human CD22-HIS tagged protein; not shown: His tag
Description: as §1

[9] = biological target: T5, endogenous CD19 on Raji / Nalm6 cells (also on CD22 knock-out Raji cells) (human, UniProt P15391 20-556); assay: FACS, scFv-Fc fusion on CD22 knock-out Raji cells (which keep CD19)
T5 construct: whole, on cells
T5 sequence (looked up): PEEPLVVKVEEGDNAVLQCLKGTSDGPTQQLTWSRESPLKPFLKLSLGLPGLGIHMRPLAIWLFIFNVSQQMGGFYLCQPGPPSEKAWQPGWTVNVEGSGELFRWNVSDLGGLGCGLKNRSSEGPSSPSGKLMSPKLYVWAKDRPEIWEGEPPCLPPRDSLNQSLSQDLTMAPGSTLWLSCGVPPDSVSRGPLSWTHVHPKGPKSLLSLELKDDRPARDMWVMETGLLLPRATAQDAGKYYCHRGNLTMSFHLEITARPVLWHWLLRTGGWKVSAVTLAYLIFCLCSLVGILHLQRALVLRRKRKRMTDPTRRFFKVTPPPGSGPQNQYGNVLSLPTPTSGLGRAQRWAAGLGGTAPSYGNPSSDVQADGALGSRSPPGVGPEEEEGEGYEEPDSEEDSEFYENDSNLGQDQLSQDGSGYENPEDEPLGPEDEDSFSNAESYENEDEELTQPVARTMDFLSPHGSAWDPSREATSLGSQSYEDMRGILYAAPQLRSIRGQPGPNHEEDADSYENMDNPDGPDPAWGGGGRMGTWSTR

[10] = biological target: T4, HIS tagged human CD22 recombinant …; assay: SPR Biacore T200, Fc fusion captured on Protein A chip, His-tagged CD22 as analyte
Description: (§2) The assay was run using Biacore™ T200 control software version 2.0. For each cycle, 1 μg/mL of Fc-fusion protein was captured for 60 seconds at flow rate of 10 ul/min on flow cell 2 in 1×HBSP buffer on Protein A sensor chip. 2-fold serial human CD19 or CD22-HIS tagged protein was injected onto both reference flow cell 1 and Fc fusion protein captured flow cell 2 for 150 seconds at flow rate of 30 μl/mins followed by wash for 300 seconds. The flow cells were then regenerated with Glycine pH2 for 60 seconds at flow rate of 30 ul/mins. 8 concentration points from 100-0 nM was assayed per Fc fusion in a 96 well plate. The kinetics of Anti-CD19, CD22, CD22-CD19 binding to CD19 or CD22 protein was analyzed using Biacore™ T200 evaluation software version 3.0. The specific binding response unit was derived from subtraction of binding to reference flow cell-1 from Fc fusion protein captured flow cell-2.

[11] = biological target: T3, HIS tagged human CD19 recombinant …; assay: ELISA, His-tagged CD19 coated at 2 µg/mL, anti-hFc HRP detection
Description: as §1

[12] = biological target: T3, HIS tagged human CD19 recombinant …; assay: SPR Biacore T200, Fc fusion captured on Protein A chip, His-tagged CD19 as analyte
Description: as §2

B1: Anti-CD22scFv-CD19scFv-Fc (bispecific antibody, part only; not given: Fc and inter-scFv linker, not shown: a dimerising Fc or GST)
chain, part: EVQLVQSGAEVKKPGASVKVSCKASGYTFTSYGISWVRQAPGQGLEWMGWISAYNGNTNYAQKLQGRVTMTTDTSTSTAYMELRSLRSDDTAVYYCARDYGDPSGDDYWGQGTLVTVSSGGGGSGGGGSGGGGSEIVLTQSPATLSVSPGEGVTLSCRASQSVSSNLAWYQQRPGQAPRLLIYGASIKATDVPDRFSGGGSGTDFTLSISNLQSEDFAVYYCQQYHTWPPVTFGGGTKVEIKQVQLQQWGAGLLKPSETLSLTCAVYGGSFSGYYWTWIRQPPGKGLEWIGEINHGGSSNYNPSLKSRVTISVDTSKKQFSLNLNSVTAADTAVYYCARGLGYRSGWYEVENAFDIWGQGTMVTVSSGGGGSGGGGSGGGGSQPVLTQPPSVSVAPGQTARITCGGNKIESRSVHWYQQKPGQAPVLVVYDDGARPSGIPERLSGSNSGDTATLTISRVEPGDEADYYCQVWDGSSVIFGGGTKLTVL
EC50 [1]: 0.189 nM | EC50 [2]: 0.052 nM | Kd [3]: 3.37 nM | koff [3]: 0.000266 s⁻¹ | kon [3]: 79000 M⁻¹ s⁻¹ | Kd [4]: 4.37 nM | koff [4]: 0.00025 s⁻¹ | kon [4]: 57200 M⁻¹ s⁻¹

B2: EPC-001-2 (scFv)
scFv (VH-linker-VL): QVQLVQSGAEVKRPGASVKVSCKASGYTFTSYGISWVRQAPGQGLEWMGWISAYNGNTNYAQKLQGRVTMTTDTSTSTAYMELRSLRSDDTAVYYCARDPGIAVAGTVDYWGQGTLVTVSSGGGGSGGGGSGGGGSEIVMTQSPATLSVSPGEGVTLSCRASQSVSSNLAWYQQRPGQAPRLLIYGASIKATDVPDRFSGGGSGTDFTLSISNVQSEDFAVYYCQQYHTWTPVTFGGGTKVEIK
notes: also called anti-CD22 monospecific scFv; parental anti-CD22 scFv
binding result [5]: binds | binding result [6]: no binding (tested: 200 nM)

B3: anti-CD22 scFv-Fc (Fc fusion, not shown: a dimerising Fc or GST)
chain: EVQLVQSGAEVKKPGASVKVSCKASGYTFTSYGISWVRQAPGQGLEWMGWISAYNGNTNYAQKLQGRVTMTTDTSTSTAYMELRSLRSDDTAVYYCARDYGDPSGDDYWGQGTLVTVSSGGGGSGGGGSGGGGSEIVLTQSPATLSVSPGEGVTLSCRASQSVSSNLAWYQQRPGQAPRLLIYGASIKATDVPDRFSGGGSGTDFTLSISNLQSEDFAVYYCQQYHTWPPVTFGGGTKVEIK
notes: also called Anti-CD22-Fc
binding result [7]: no binding (tested: 25 nM) | EC50 [8]: 0.043 nM | binding result [9]: no binding | Kd [10]: 1.44 nM | koff [10]: 0.000177 s⁻¹ | kon [10]: 122000 M⁻¹ s⁻¹

B4: anti-CD19 scFv-Fc (Fc fusion, not shown: a dimerising Fc or GST)
chain: QVQLQQWGAGLLKPSETLSLTCAVYGGSFSGYYWTWIRQPPGKGLEWIGEINHGGSSNYNPSLKSRVTISVDTSKKQFSLNLNSVTAADTAVYYCARGLGYRSGWYEVENAFDIWGQGTMVTVSSGGGGSGGGGSGGGGSQPVLTQPPSVSVAPGQTARITCGGNKIESRSVHWYQQKPGQAPVLVVYDDGARPSGIPERLSGSNSGDTATLTISRVEPGDEADYYCQVWDGSSVIFGGGTKLTVL
notes: also called anti-CD19-Fc
EC50 [11]: 0.0094 nM | Kd [12]: 3.75 nM | koff [12]: 0.000223 s⁻¹ | kon [12]: 59400 M⁻¹ s⁻¹
